According to patent US5512455A, “Atrial natriuretic peptide receptor protein” (Scios Nova, Inc., priority 1987, dated 1996):
Ends that are not written are not given here.

Columns and labels:
[1] = molecular target: T1, purified bovine vascular ANP receptor protein (Bos taurus, UniProt P10730); assay: Competitive binding of 125I-ANP(4-28) against ANP peptides to purified ANP receptor protein; conditions: for relative Ki value: purified bovine receptor, competition with 125I-ANP(4-28)
T1 construct: mature receptor protein is a 496 amino acid polypeptide, expressed as a propeptide; endogenous in cells; host or cells: bovine aortic smooth muscle (BASM) cells, cultured
T1 sequence (P10730 42-537): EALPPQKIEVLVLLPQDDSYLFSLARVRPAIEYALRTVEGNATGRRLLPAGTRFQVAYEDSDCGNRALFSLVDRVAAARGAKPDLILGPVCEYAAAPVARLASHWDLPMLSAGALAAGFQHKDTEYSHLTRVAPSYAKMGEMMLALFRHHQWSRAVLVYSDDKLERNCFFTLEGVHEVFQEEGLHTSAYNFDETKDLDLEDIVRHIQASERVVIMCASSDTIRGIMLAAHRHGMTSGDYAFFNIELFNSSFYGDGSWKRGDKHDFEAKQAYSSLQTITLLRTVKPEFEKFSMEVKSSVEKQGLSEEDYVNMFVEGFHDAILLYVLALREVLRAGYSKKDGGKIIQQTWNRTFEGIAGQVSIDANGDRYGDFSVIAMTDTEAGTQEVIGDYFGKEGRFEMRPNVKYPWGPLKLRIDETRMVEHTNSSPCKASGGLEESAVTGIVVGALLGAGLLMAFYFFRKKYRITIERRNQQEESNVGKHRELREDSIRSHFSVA
Procedure: To characterize the purified native bovine vascular ANP receptor protein further, its activity as a receptor in vitro was studied. The following ANP peptides, described in Schenk et al. (II), supra, were employed; ANP(4-28), ANP(7-28), and ANP(5-25). Bmax, Ki and Kd were calculated by standard methods. See, e.g., Scatchard (1949) Ann. N.Y. Acad. Sci., pp. 600-672. […] This corresponds to a stoichiometry of ANP to receptor protein of 1:3/subunit, or 0.7:1/holoreceptor.
An affinity matrix was made by coupling 40 mg human ANP(4-28) to 4 ml of Affi-gel 10 (Bio-Rad) as described by the manufacturer. Solubilized ANP receptor was adjusted to 10 mM CaCl2 and MgCl2 and filtered through […] (type GE, Millipore). The filtrate was chromatographed on the ANP-agarose column at a flow rate of 0.5 ml/min at 21° C. The column was washed with binding buffer (100 mM Tris HCl, pH 7.50; 100 mM NaCl; 4 mg/ml C12 E8; 10 mM CaCl2; and 10 mM MgCl2) until the effluent reached A280 =0.000. Then 6.0 ml of elution buffer (10 mM Na acetate, pH 5.00:100 mM NaCl; 4 mg/ml C12 E8; 10 mM CaCl2; 10 mM MgCl2) was added and the eluent was placed on ice and immediately adjusted to 37% (v/v) acetone. The solution was centrifuged at 4,000×g for 10 min at 4° C. and thoroughly aspirated. The pellet was resuspended in 3.0 ml of binding buffer and analyzed for purity, receptor binding activity, and amino acid sequence.
The tested ANP peptide included hANP(4-28), hANP(7-28) and atriopeptin I. Gamma-melanocyte stimulating hormone ([…]) was employed as a negative control. […] This corresponds to a stoichiometry of ANP to receptor protein of 1:3 kd subunit, or 0.7:1.0/holoreceptor.
Additional studies were conducted with ANP peptides.

[2] = molecular target: T2, ANP receptor (pANPRc-1/4) expressed in Xenopus oocytes (Bos taurus, UniProt P10730); assay: ANP binding to recombinant ANP receptor (pANPRc-1/4) in solubilized membranes of mRNA-injected Xenopus oocytes; set-up: species or system bovine
T2 construct: contains a 2290 base pair DNA insert which includes the entire open reading frame; expressed in transfected cells; host or cells: Xenopus oocytes injected with synthetic RNA from pANPRc-1/4; solubilized crude membranes
T2 sequence (P10730 42-537): T1 sequence (P10730 42-537)
Procedure: The receptor coding sequence from pANPRc-1/4 was cloned into pGEM1 (ProMega, Madison, Wis.) and RNA prepared according to the supplier's instructions. Oocyte preparation and injection were performed essentially as described, Gurdon et al. (1983) Meth. Enzymol. 101:370-386. Typically, each oocyte was injected with 50 nl 50 ng synthetic RNA followed by incubation in modified Barth's saline at 21° C. for 48 hr. Crude membranes were prepared and solubilized in receptor binding buffer (2 mg/ml C12 E8, 100 mM NaCl, 10 mM MgCl2, 10 mM CaCl2 and 100 mM Tris:HCl; pH 7.5). Binding was measured after incubating 0.5 ml of membrane suspension containing 10 μg protein with 2×10^5 cpm of ^125 I! […] (1×10^3 cpm/fmol) and the indicated concentration of unlabeled ANP analog for 30 min at 21° C. Reactions were terminated and free peptide separated from bound by precipitation with acetone (40% v/v final). Counts bound in the absence of unlabeled ligand were 2048±374 cpm while nonspecific binding (counts bound in the presence of 20 nM rANP) were 592±89 cpm.
Only low level, nonspecific binding was detected in membranes of uninfected, or mock injected eggs. […] Both […] and the truncated analog […] for binding. The Ii apparent obtained from the experiment was 0.27 nM for both analogs.

Substance	Bmax for receptor binding ([1]; computer analysis of binding data, b45 adds '75% receptor activity') [nmol/mg protein]	Kd ([1]; computer analysis of binding data, purified receptor) [nM]	relative Ki value [1] [nM]	effect on binding of radiolabeled ANP ([2]; even at 100 μM)	competition for binding ([2]; solubilized oocyte membranes)
ANP(4-28): ANP peptide described in Schenk et al. (II) (RSSCFGGRMDRIGAQSGLGCNSFRY; ends and bridges not checked; cysteine pairing not given here; UniProt P01160 127-151, looked up, fragment)	5.7	0.3	0.3		
ANP(5-25): ANP peptide described in Schenk et al. (II) (SSCFGGRMDRIGAQSGLGCNS; ends and bridges not checked; cysteine pairing not given here; UniProt P01160 128-148, looked up, fragment)			1.12		
ANP(7-28): ANP peptide described in Schenk et al. (II) (CFGGRMDRIGAQSGLGCNSFRY; ends and bridges not checked; cysteine pairing not given here; UniProt P01160 130-151, looked up, fragment)			1.1		
Bombesin: bombesin, an unrelated tetradecapeptide (Peninsula Labs)				no effect on binding	did not compete for binding
